The source of these data is the RNAGym collection of RNA variant scans (doi:10.1073/pnas.2313332121).

B1: TPR t1 (parent)
chain: GACCAAUCUGCCCUCAGAGCUCGAGAACAUCUUCGGAUGCAGAGGAGGCAGGCUUCGGUGGCGCGAUAGCGCCAACGUCCUCAACCUCCAAUGCAUCCCACCACAUGAUGAUGCCUGAAGAGCCUUGGUUUUUUG

In the data set the parent is B1. As to the kind of experiment: polymerase ribozyme fitness, log enrichment relative to wild type (log ratio); higher = more active; in vitro selection for triplet polymerase activity. The gist of the method:
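Fitness measures genotype enrichment against wild-type enrichment on a logarithmic scale, with inverse-variance-weighted averaging of replicates. The logarithm is base 2, and genotypes were kept only with ≥10 input reads and ≥1 read per output in Illumina sequencing. The sequenced libraries came from one triplicate in vitro selection round, including frozen incubation at −7 °C, of PCR-built, transcribed mutant libraries of each subunit of a heterodimeric triplet polymerase ribozyme.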
On to C12U G51C C79U, for which the “polymerase ribozyme fitness (log ratio)” value is -2.71.
A46U G122U: the “polymerase ribozyme fitness (log ratio)” value is -0.865.
As for C34A G71C U129C, the “polymerase ribozyme fitness (log ratio)” value is -5.07.
Regarding C4U A18U, the “polymerase ribozyme fitness (log ratio)” value was -2.35.
Turning to U38A A50U C73G A121U, the “polymerase ribozyme fitness (log ratio)” value was -0.841.
In the case of A41U C102U, the “polymerase ribozyme fitness (log ratio)” value was -3.6.
In the case of G113U A119G, the “polymerase ribozyme fitness (log ratio)” value was -1.66.
With G52A G117U, the “polymerase ribozyme fitness (log ratio)” value is -0.533.
For the variant C20U C70U, the “polymerase ribozyme fitness (log ratio)” value is -1.7.
With G17A A18C C62G G120C, the “polymerase ribozyme fitness (log ratio)” value is -4.41.
Consider C8U C76G A90C C101U, for which the “polymerase ribozyme fitness (log ratio)” value was -1.52.
As for A90G G113U A118C, the “polymerase ribozyme fitness (log ratio)” value was -4.53.
As to C94U C102U U126C, the “polymerase ribozyme fitness (log ratio)” value was -2.66.
With C11U A41G U78G C97U, the “polymerase ribozyme fitness (log ratio)” value is -1.63.
As to C88A G120U, the “polymerase ribozyme fitness (log ratio)” value is -0.146.
Take C12A A18G C40U: the “polymerase ribozyme fitness (log ratio)” value is -4.84.
To C53A C88U C104U belongs 0.665; to A18U U54C A83G U109A, -6.59.
To A74U U87G belongs 0.353.
Take U21C G45C C56U G69A U109A A111U C124G: the “polymerase ribozyme fitness (log ratio)” value is -8.04.
C13A A16U C94U A111U C123G U130C: the “polymerase ribozyme fitness (log ratio)” value is -6.28.
For the variant G25C G61A, the “polymerase ribozyme fitness (log ratio)” value is -4.35.
With C8G G69C G113A, the “polymerase ribozyme fitness (log ratio)” value was -1.36.
Take A37G A43U G52A G57U C98U: the “polymerase ribozyme fitness (log ratio)” value was -5.9.
As for C8U G51U, the “polymerase ribozyme fitness (log ratio)” value is -2.45.
Take A37U G44A G113C U130A: the “polymerase ribozyme fitness (log ratio)” value is -3.29.
For C3U C86G G113C, the “polymerase ribozyme fitness (log ratio)” value was -3.51.
Consider C8G C11G U96A, for which the “polymerase ribozyme fitness (log ratio)” value was -0.26.
In the case of C13G G48A C56A C73A, the “polymerase ribozyme fitness (log ratio)” value was -3.11.
For the variant C20G U30G C114G G117U C124G, the “polymerase ribozyme fitness (log ratio)” value is -7.61.
On to A26U G44C G48C C101A A111G U112A C124A, for which the “polymerase ribozyme fitness (log ratio)” value was -8.24.
In the case of A6G C98U it was -1.69.
In the case of C73A C101A, the “polymerase ribozyme fitness (log ratio)” value is -1.
With C12A G45U C56U G93A, the “polymerase ribozyme fitness (log ratio)” value is -2.57.
In the case of C53A A74U U125A it was -1.05; in that of C20G G117U, -5.16; in that of A18U G45U U87C A90G, -2.54.
As for C11U U33A, the “polymerase ribozyme fitness (log ratio)” value was -4.31.
Take A16U G60A C62U U112C: the “polymerase ribozyme fitness (log ratio)” value was -0.401.
On to C89U C123U, for which the “polymerase ribozyme fitness (log ratio)” value came out at 0.813.
In the case of G19U C31U C56G C124U, the “polymerase ribozyme fitness (log ratio)” value was -6.42.
As for A5U A37G C72U, the “polymerase ribozyme fitness (log ratio)” value is -0.735.
Consider C72U A90C, for which the “polymerase ribozyme fitness (log ratio)” value is -1.33.
Regarding C8U U21A G69C U106C U112A, the “polymerase ribozyme fitness (log ratio)” value is -0.365.
On to C12A A18C G77C A121U, for which the “polymerase ribozyme fitness (log ratio)” value is -0.381.
Regarding C22G A50U U96C A119G, the “polymerase ribozyme fitness (log ratio)” value is -3.9.
In the case of G51U C62G C124G it was -5.32; in that of G45A C49G G60U U106C U112A, -0.821.
With C12U C20U A91U U116G, the “polymerase ribozyme fitness (log ratio)” value is -4.44.
Consider C12A G69A A100C A121C, for which the “polymerase ribozyme fitness (log ratio)” value was -3.75.
Take C72U U78C C94U: the “polymerase ribozyme fitness (log ratio)” value was -0.922.
To C11G A50C U125A belongs -0.245; to C11A A121C, 1.02; to C62A U132C, -0.866.
Turning to U7C C34U G61U C88A U116A, the “polymerase ribozyme fitness (log ratio)” value is -5.7.
Regarding G51U C82U C85U C94U, the “polymerase ribozyme fitness (log ratio)” value is -2.49.
On to G60C A84U U116C, for which the “polymerase ribozyme fitness (log ratio)” value was -0.854.
With C34U C72U A105G G120A, the “polymerase ribozyme fitness (log ratio)” value was -6.01.
U54G G57U G120A: the “polymerase ribozyme fitness (log ratio)” value is 0.132.
On to U67C C94A C123U, for which the “polymerase ribozyme fitness (log ratio)” value was -6.04.
For the variant C20G G45A U130C, the “polymerase ribozyme fitness (log ratio)” value was -5.42.
Turning to A6U C49A C53A C79A C85U A111C, the “polymerase ribozyme fitness (log ratio)” value was -3.36.
As for C4U U9C C34G A100U, the “polymerase ribozyme fitness (log ratio)” value is -4.68.
To G61A G69C belongs -3.18; to U14G G45C C94A C123U, -3.17; to C20U G60A C124U, 0.188.
As for C12A C49A C82A, the “polymerase ribozyme fitness (log ratio)” value was -1.3.
To U30C G42U belongs -3.85.
In the case of C40G U132A, the “polymerase ribozyme fitness (log ratio)” value is -0.821.
As to G44C C70A U96A, the “polymerase ribozyme fitness (log ratio)” value is -3.81.
As to A27G A46G C89G, the “polymerase ribozyme fitness (log ratio)” value was -4.52.
Take C20U U132C: the “polymerase ribozyme fitness (log ratio)” value is -1.93.
To C86U G110A belongs -2.37.
C13U C123A: the “polymerase ribozyme fitness (log ratio)” value was 1.1.
Regarding C12U G52A G117C, the “polymerase ribozyme fitness (log ratio)” value was -0.882.
In the case of C12A C53U C73A, the “polymerase ribozyme fitness (log ratio)” value is -0.585.
Regarding G61A G93U, the “polymerase ribozyme fitness (log ratio)” value is -0.737.
For the variant C56G C89A A105G C114U, the “polymerase ribozyme fitness (log ratio)” value was -5.42.
For the variant C80U C114A, the “polymerase ribozyme fitness (log ratio)” value is -1.85.
In the case of C49A C79U C114U G120U it was -4.69.
For A6U C72U U96C G117U, the “polymerase ribozyme fitness (log ratio)” value is -3.88.
Regarding G35A G122U C123G, the “polymerase ribozyme fitness (log ratio)” value was -4.
Take C53G U106G: the “polymerase ribozyme fitness (log ratio)” value was -2.14.
To U14G C40A G71U A121G G127U belongs 0.306.
